Assay results from the array DNA melting data of Ke et al..

experiment: melting temperature; melt of duplexes; settings: sodium 0.0675 M; strand 1 µM

Going from “CGACGTGCAGGATGTGCTG+CAGCACATCACGCACGTCG ((((((((..(((((((((+)))))))))..))))))))” to “CGACGTGCCCGATGTGCTG+CAGCACATCTAGCACGTCG ((((((((..(((((((((+)))))))))..))))))))”, the Tm falls from 55.9 °C to 52.9 °C.

First: CGACGTGCTTCATGTGCTG+CAGCACATTACGCACGTCG ((((((((.(.((((((((+)))))))).).))))))))
Second: CGACGTGCTCCATGTGCTG+CAGCACATGGTGCACGTCG ((((((((.((((((((((+)))))))))).))))))))
The Tm of the first is lower: 47.8 °C for the first, 58.9 °C for the second.

First: CGACGTGCTCGATGTGCTG+CAGCACATGCAGCACGTCG (((((((((..((((((((+))))))))..)))))))))
Second: CGACGTGCGATATGTGCTG+CAGCACATCTCGCACGTCG ((((((((((.((((((((+)))))))).))))))))))
The Tm of the first is lower: 52.1 °C for the first, 57.2 °C for the second.

Compared with “CGACGTGCAGCATGTGCTG+CAGCACATGCAGCACGTCG ((((((((.((((((((((+)))))))))).))))))))”, “CGACGTGCACAATGTGCTG+CAGCACATTAAGCACGTCG ((((((((..(((((((((+)))))))))..))))))))” is lower in Tm: 60.8 °C for the first, 49 °C for the second.

Going from “CGACGTGCTTTATGTGCTG+CAGCACATGACGCACGTCG ((((((((.(.((((((((+)))))))).).))))))))” to “CGACGTGCCGCATGTGCTG+CAGCACATTGGGCACGTCG (((((((((..((((((((+))))))))..)))))))))”, the Tm rises from 47.1 °C to 54.4 °C.

Going from “CGACGTGCGTTATGTGCTG+CAGCACATTTGGCACGTCG ((((((((...((((((((+))))))))...))))))))” to “CGACGTGCCCCATGTGCTG+CAGCACATTCTGCACGTCG ((((((((...((((((((+))))))))...))))))))”, the Tm falls from 49.4 °C to 46.9 °C.

Compared with “CGACGTGCCTCATGTGCTG+CAGCACATTACGCACGTCG ((((((((.(.((((((((+)))))))).).))))))))”, “CGACGTGCGATATGTGCTG+CAGCACATGGGGCACGTCG ((((((((...((((((((+))))))))...))))))))” is higher in Tm: 46.4 °C for the first, 51.3 °C for the second.

First: CGACGTGCAGGATGTGCTG+CAGCACATTAGGCACGTCG ((((((((...((((((((+))))))))...))))))))
Second: CGACGTGCCCGATGTGCTG+CAGCACATTGCGCACGTCG ((((((((.(.((((((((+)))))))).).))))))))
The Tm of the first is higher: 51.3 °C for the first, 51.2 °C for the second.

Going from “CGACGTGCAAGATGTGCTG+CAGCACATTAGGCACGTCG ((((((((...((((((((+))))))))...))))))))” to “CGACGTGCCCGATGTGCTG+CAGCACATGTTGCACGTCG ((((((((...((((((((+))))))))...))))))))”, the Tm falls from 51.3 °C to 48.1 °C.

Compared with “CGACGTGCCGAATGTGCTG+CAGCACATGGGGCACGTCG (((((((((..((((((((+))))))))..)))))))))”, “CGACGTGCTTCATGTGCTG+CAGCACATGGAGCACGTCG (((((((((.(((((((((+))))))))).)))))))))” is higher in Tm: 56.8 °C for the first, 60 °C for the second.

Going from “CGACGTGCGGCATGTGCTG+CAGCACATCGGGCACGTCG ((((((((...((((((((+))))))))...))))))))” to “CGACGTGCCCGATGTGCTG+CAGCACATTTCGCACGTCG ((((((((...((((((((+))))))))...))))))))”, the Tm falls from 49.6 °C to 47.6 °C.

First: CGACGTGCGTGATGTGCTG+CAGCACATCTAGCACGTCG ((((((((..(((((((((+)))))))))..))))))))
Second: CGACGTGCCACATGTGCTG+CAGCACATTCCGCACGTCG ((((((((...((((((((+))))))))...))))))))
The Tm of the first is higher: 57.2 °C for the first, 47.1 °C for the second.

Compared with “CGACGTGCGGAATGTGCTG+CAGCACATGTTGCACGTCG ((((((((...((((((((+))))))))...))))))))”, “CGACGTGCCCTATGTGCTG+CAGCACATACCGCACGTCG ((((((((..(((((((((+)))))))))..))))))))” is lower in Tm: 52.8 °C for the first, 47.4 °C for the second.

Going from “CGACGTGCTAAATGTGCTG+CAGCACATCGGGCACGTCG ((((((((...((((((((+))))))))...))))))))” to “CGACGTGCTTGATGTGCTG+CAGCACATTTAGCACGTCG (((((((((..((((((((+))))))))..)))))))))”, the Tm rises from 49.7 °C to 52.5 °C.

First: CGACGTGCGCAATGTGCTG+CAGCACATCTCGCACGTCG (((((((((..((((((((+))))))))..)))))))))
Second: CGACGTGCCATATGTGCTG+CAGCACATGCGGCACGTCG (((((((((..((((((((+))))))))..)))))))))
The Tm of the first is lower: 52.8 °C for the first, 54.1 °C for the second.

First: CGACGTGCCAGATGTGCTG+CAGCACATGTCGCACGTCG ((((((((.(.((((((((+)))))))).).))))))))
Second: CGACGTGCTGGATGTGCTG+CAGCACATTCCGCACGTCG ((((((((.(.((((((((+)))))))).).))))))))
The Tm of the first is lower: 49.7 °C for the first, 53.9 °C for the second.

Going from “CGACGTGCGCTATGTGCTG+CAGCACATAGAGCACGTCG ((((((((.((((((((((+)))))))))).))))))))” to “CGACGTGCGATATGTGCTG+CAGCACATAATGCACGTCG ((((((((..(((((((((+)))))))))..))))))))”, the Tm falls from 58.7 °C to 54 °C.

Compared with “CGACGTGCATTATGTGCTG+CAGCACATAGGGCACGTCG ((((((((..(((((((((+)))))))))..))))))))”, “CGACGTGCCACATGTGCTG+CAGCACATACCGCACGTCG ((((((((...((((((((+))))))))...))))))))” is lower in Tm: 52 °C for the first, 46.7 °C for the second.

First: CGACGTGCGCGATGTGCTG+CAGCACATACTGCACGTCG ((((((((...((((((((+))))))))...))))))))
Second: CGACGTGCACCATGTGCTG+CAGCACATCGAGCACGTCG ((((((((.(.((((((((+)))))))).).))))))))
The Tm of the first is higher: 50.3 °C for the first, 45.7 °C for the second.

First: CGACGTGCGCTATGTGCTG+CAGCACATTTTGCACGTCG ((((((((...((((((((+))))))))...))))))))
Second: CGACGTGCCGTATGTGCTG+CAGCACATAGTGCACGTCG ((((((((..(((((((((+)))))))))..))))))))
The Tm of the first is lower: 48.3 °C for the first, 49.5 °C for the second.

Going from “CGACGTGCCCGATGTGCTG+CAGCACATACTGCACGTCG ((((((((...((((((((+))))))))...))))))))” to “CGACGTGCGGAATGTGCTG+CAGCACATGGTGCACGTCG ((((((((...((((((((+))))))))...))))))))”, the Tm rises from 48.7 °C to 52.2 °C.

First: CGACGTGCTAAATGTGCTG+CAGCACATCCGGCACGTCG ((((((((...((((((((+))))))))...))))))))
Second: CGACGTGCATGATGTGCTG+CAGCACATTGTGCACGTCG (((((((((..((((((((+))))))))..)))))))))
The Tm of the first is lower: 49.5 °C for the first, 53.2 °C for the second.

Compared with “CGACGTGCGGAATGTGCTG+CAGCACATGGGGCACGTCG ((((((((...((((((((+))))))))...))))))))”, “CGACGTGCTATATGTGCTG+CAGCACATGGCGCACGTCG ((((((((...((((((((+))))))))...))))))))” is lower in Tm: 52.9 °C for the first, 48.5 °C for the second.

“CGACGTGCACTATGTGCTG+CAGCACATGAGGCACGTCG ((((((((...((((((((+))))))))...))))))))” and “CGACGTGCCTGATGTGCTG+CAGCACATGCCGCACGTCG ((((((((...((((((((+))))))))...))))))))” are the same in Tm: 47.5 °C for the first, 47.5 °C for the second.

Going from “CGACGTGCTGAATGTGCTG+CAGCACATCCCGCACGTCG ((((((((.(.((((((((+)))))))).).))))))))” to “CGACGTGCGGTATGTGCTG+CAGCACATGATGCACGTCG ((((((((...((((((((+))))))))...))))))))”, the Tm rises from 51 °C to 52.2 °C.

First: CGACGTGCAAGATGTGCTG+CAGCACATCTAGCACGTCG ((((((((.((((((((((+)))))))))).))))))))
Second: CGACGTGCAACATGTGCTG+CAGCACATACTGCACGTCG (((((((((..((((((((+))))))))..)))))))))
The Tm of the first is higher: 57.9 °C for the first, 49.8 °C for the second.

Compared with “CGACGTGCTCTATGTGCTG+CAGCACATGCGGCACGTCG ((((((((...((((((((+))))))))...))))))))”, “CGACGTGCAATATGTGCTG+CAGCACATCGCGCACGTCG ((((((((...((((((((+))))))))...))))))))” is lower in Tm: 48.5 °C for the first, 47.4 °C for the second.

First: CGACGTGCTCTATGTGCTG+CAGCACATTCGGCACGTCG ((((((((...((((((((+))))))))...))))))))
Second: CGACGTGCTCGATGTGCTG+CAGCACATCATGCACGTCG ((((((((..(((((((((+)))))))))..))))))))
The Tm of the first is lower: 48.7 °C for the first, 54.1 °C for the second.

Going from “CGACGTGCGGGATGTGCTG+CAGCACATATAGCACGTCG ((((((((...((((((((+))))))))...))))))))” to “CGACGTGCATCATGTGCTG+CAGCACATATTGCACGTCG (((((((((..((((((((+))))))))..)))))))))”, the Tm falls from 52.8 °C to 50.3 °C.

Compared with “CGACGTGCCTTATGTGCTG+CAGCACATTGTGCACGTCG ((((((((...((((((((+))))))))...))))))))”, “CGACGTGCTTGATGTGCTG+CAGCACATAAAGCACGTCG ((((((((((.((((((((+)))))))).))))))))))” is higher in Tm: 45.7 °C for the first, 57.7 °C for the second.

Compared with “CGACGTGCTCGATGTGCTG+CAGCACATTAGGCACGTCG ((((((((...((((((((+))))))))...))))))))”, “CGACGTGCTATATGTGCTG+CAGCACATATAGCACGTCG (((((((((((((((((((+)))))))))))))))))))” is higher in Tm: 50.9 °C for the first, 61.3 °C for the second.

Going from “CGACGTGCTACATGTGCTG+CAGCACATGAAGCACGTCG (((((((((.(((((((((+))))))))).)))))))))” to “CGACGTGCACGATGTGCTG+CAGCACATATCGCACGTCG ((((((((...((((((((+))))))))...))))))))”, the Tm falls from 58.3 °C to 44.2 °C.

Compared with “CGACGTGCTGAATGTGCTG+CAGCACATAGGGCACGTCG ((((((((...((((((((+))))))))...))))))))”, “CGACGTGCCTTATGTGCTG+CAGCACATAGCGCACGTCG ((((((((..(((((((((+)))))))))..))))))))” is lower in Tm: 50.7 °C for the first, 50.4 °C for the second.

Going from “CGACGTGCGACATGTGCTG+CAGCACATTCCGCACGTCG (((((((((..((((((((+))))))))..)))))))))” to “CGACGTGCACCATGTGCTG+CAGCACATGCGGCACGTCG ((((((((..(((((((((+)))))))))..))))))))”, the Tm falls from 53.6 °C to 50.4 °C.

First: CGACGTGCATAATGTGCTG+CAGCACATTAGGCACGTCG ((((((((.((((((((((+)))))))))).))))))))
Second: CGACGTGCATGATGTGCTG+CAGCACATGATGCACGTCG ((((((((((.((((((((+)))))))).))))))))))
The Tm of the first is higher: 57.7 °C for the first, 56.8 °C for the second.

Compared with “CGACGTGCTGGATGTGCTG+CAGCACATCTAGCACGTCG (((((((((.(((((((((+))))))))).)))))))))”, “CGACGTGCGCTATGTGCTG+CAGCACATTACGCACGTCG (((((((((..((((((((+))))))))..)))))))))” is lower in Tm: 60 °C for the first, 53.4 °C for the second.
